This passage reports protein stability index results from the supplement of paper PMC10567573.

B1: FBXO34 (parent)
chain: PRYREDPCKQCKKKYVKGDVSLCR
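Note: lentivirally expressed fusions sorted by FACS into six bins by GFP to DsRed ratio, PSI derived from sequencing read proportions per bin multiplied by bin number.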

In this data set the parent is B1. The data set can be described thus: protein stability index of a GFP-peptide fusion (GPS, HEK-293T) (PSI 1-6); higher = more stable. Particulars: c terminus: a fixed tail appended.
On to PRYREDPCKQCKKKYVKGDVSLCY [R24Y], for which the protein stability index turned out to be 2.87.
PRYREDPCKQCKKKYVKGDVSLCP [R24P]: the protein stability index turned out to be 4.39.
In the case of PRYREDPCKQCKKKYVKGDVSLCI [R24I], the protein stability index is 2.46.
The same measure for PRYREDPCKQCKKKYVKGDVSLCE [R24E]: 4.08; for PRYREDPCKQCKKKYVKGDVSLCV [R24V]: 3.34; for PRYREDPCKQCKKKYVKGDVSLCN [R24N]: 3.46.
As for PRYREDPCKQCKKKYVKGDVSLCW [R24W], the protein stability index was 2.27.
On to PRYREDPCKQCKKKYVKGDVSLCD [R24D], for which the protein stability index came to 3.82.
The figure for PRYREDPCKQCKKKYVKGDVSLCH [R24H] is 3.42.
The figure for PRYREDPCKQCKKKYVKGDVSLCL [R24L] is 2.52.
With PRYREDPCKQCKKKYVKGDVSLCA [R24A], the protein stability index was found to be 2.9.
The figure for PRYREDPCKQCKKKYVKGDVSLCS [R24S] is 3.39; for PRYREDPCKQCKKKYVKGDVSLCF [R24F] it is 2.51.
As to PRYREDPCKQCKKKYVKGDVSLCM [R24M], the protein stability index is 3.09.
On to PRYREDPCKQCKKKYVKGDVSLCC [R24C], for which the protein stability index stood at 3.58.
The figure for PRYREDPCKQCKKKYVKGDVSLCQ [R24Q] is 3.91.
The same measure for PRYREDPCKQCKKKYVKGDVSLCK [R24K]: 4.33; for PRYREDPCKQCKKKYVKGDVSLCT [R24T]: 3.05.
The figure for PRYREDPCKQCKKKYVKGDVSLCG [R24G] is 3.11.
Consider PRYREDPCKQCKKKYVKGDVLLCR [S21L], for which the protein stability index was determined as 2.22.
The same measure for PRYREDPCKQCKKKYVKGDVFLCR [S21F]: 2.67; for PRYREDPCKQCKKKYVKGDVKLCR [S21K]: 2.87.
The same measure for PRYREDPCKQCKKKYVKGDVMLCR [S21M]: 2.51; for PRYREDPCKQCKKKYVKGDVRLCR [S21R]: 2.97; for PRYREDPCKQCKKKYVKGDVELCR [S21E]: 2.83.
Consider PRYREDPCKQCKKKYVKGDVDLCR [S21D], for which the protein stability index turned out to be 2.92.
For the variant PRYREDPCKQCKKKYVKGDVWLCR [S21W], the protein stability index is 2.16.
The figure for PRYREDPCKQCKKKYVKGDVHLCR [S21H] is 3.53; for PRYREDPCKQCKKKYVKGDVILCR [S21I] it is 2.34.
Turning to PRYREDPCKQCKKKYVKGDVNLCR [S21N], the protein stability index worked out at 2.64.
For PRYREDPCKQCKKKYVKGDVTLCR [S21T], the protein stability index worked out at 2.66.
The figure for PRYREDPCKQCKKKYVKGDVYLCR [S21Y] is 2.18.
For the variant PRYREDPCKQCKKKYVKGDVGLCR [S21G], the protein stability index turned out to be 2.54.
Turning to PRYREDPCKQCKKKYVKGDVCLCR [S21C], the protein stability index turned out to be 4.63.
For the variant PRYREDPCKQCKKKYVKGDVPLCR [S21P], the protein stability index was 2.53.
Turning to PRYREDPCKQCKKKYVKGDVQLCR [S21Q], the protein stability index stood at 3.14.
Consider PRYREDPCKQCKKKYVKGDVVLCR [S21V], for which the protein stability index came to 3.13.
The figure for PRYREDPCKQCKKKYVKGDVALCR [S21A] is 3.03.
The same measure for PRYREDPCKQCKKKYVKGDVSLIR [C23I]: 2.59; for PRYREDPCKQCKKKYVKGDVSLKR [C23K]: 3.29; for PRYREDPCKQCKKKYVKGDVSLHR [C23H]: 3.1.
Turning to PRYREDPCKQCKKKYVKGDVSLFR [C23F], the protein stability index was found to be 2.27.
The same measure for PRYREDPCKQCKKKYVKGDVSLDR [C23D]: 3.3; for PRYREDPCKQCKKKYVKGDVSLLR [C23L]: 3.1; for PRYREDPCKQCKKKYVKGDVSLAR [C23A]: 2.95.
The same measure for PRYREDPCKQCKKKYVKGDVSLYR [C23Y]: 2.11; for PRYREDPCKQCKKKYVKGDVSLVR [C23V]: 3.18.
The figure for PRYREDPCKQCKKKYVKGDVSLER [C23E] is 2.71.
Take PRYREDPCKQCKKKYVKGDVSLGR [C23G]: the protein stability index was found to be 2.88.
Turning to PRYREDPCKQCKKKYVKGDVSLSR [C23S], the protein stability index worked out at 2.58.
The figure for PRYREDPCKQCKKKYVKGDVSLPR [C23P] is 2.52; for PRYREDPCKQCKKKYVKGDVSLTR [C23T] it is 3.12; for PRYREDPCKQCKKKYVKGDVSLRR [C23R] it is 2.86.
PRYREDPCKQCKKKYVKGDVSLQR [C23Q]: the protein stability index worked out at 1.9.
As for PRYREDPCKQCKKKYVKGDVSLMR [C23M], the protein stability index came out at 2.95.
On to PRYREDPCKQCKKKYVKGDVSLWR [C23W], for which the protein stability index is 1.85.
The same measure for PRYREDPCKQCKKKYVKGDVSLNR [C23N]: 2.53.
The figure for PRYREDPCKQCKKKYVKGIVSLCR [D19I] is 3.18; for PRYREDPCKQCKKKYVKGAVSLCR [D19A] it is 3.15; for PRYREDPCKQCKKKYVKGYVSLCR [D19Y] it is 2.56.
As to PRYREDPCKQCKKKYVKGNVSLCR [D19N], the protein stability index was 3.52.
Take PRYREDPCKQCKKKYVKGTVSLCR [D19T]: the protein stability index turned out to be 2.97.
With PRYREDPCKQCKKKYVKGWVSLCR [D19W], the protein stability index is 2.56.
The figure for PRYREDPCKQCKKKYVKGFVSLCR [D19F] is 2.23.
In the case of PRYREDPCKQCKKKYVKGRVSLCR [D19R], the protein stability index is 3.41.
The same measure for PRYREDPCKQCKKKYVKGLVSLCR [D19L]: 2.43; for PRYREDPCKQCKKKYVKGPVSLCR [D19P]: 2.66; for PRYREDPCKQCKKKYVKGEVSLCR [D19E]: 3.31.
The same measure for PRYREDPCKQCKKKYVKGKVSLCR [D19K]: 3.14; for PRYREDPCKQCKKKYVKGQVSLCR [D19Q]: 2.71; for PRYREDPCKQCKKKYVKGSVSLCR [D19S]: 2.38.
In the case of PRYREDPCKQCKKKYVKGMVSLCR [D19M], the protein stability index was 2.84.
The same measure for PRYREDPCKQCKKKYVKGCVSLCR [D19C]: 3.07.
The figure for PRYREDPCKQCKKKYVKGVVSLCR [D19V] is 2.07; for PRYREDPCKQCKKKYVKGGVSLCR [D19G] it is 2.63; for PRYREDPCKQCKKKYVKGHVSLCR [D19H] it is 2.88.
In the case of PRYREDPCKQCKKKYVKGDNSLCR [V20N], the protein stability index stood at 2.97.
For PRYREDPCKQCKKKYVKGDMSLCR [V20M], the protein stability index came to 2.88.
Consider PRYREDPCKQCKKKYVKGDCSLCR [V20C], for which the protein stability index is 3.68.
As for PRYREDPCKQCKKKYVKGDYSLCR [V20Y], the protein stability index turned out to be 2.38.
The figure for PRYREDPCKQCKKKYVKGDKSLCR [V20K] is 3.07; for PRYREDPCKQCKKKYVKGDWSLCR [V20W] it is 2.06.
PRYREDPCKQCKKKYVKGDQSLCR [V20Q]: the protein stability index came to 3.31.
The figure for PRYREDPCKQCKKKYVKGDHSLCR [V20H] is 3.51; for PRYREDPCKQCKKKYVKGDLSLCR [V20L] it is 2.46; for PRYREDPCKQCKKKYVKGDFSLCR [V20F] it is 1.93.
In the case of PRYREDPCKQCKKKYVKGDESLCR [V20E], the protein stability index was 2.8.
The same measure for PRYREDPCKQCKKKYVKGDPSLCR [V20P]: 3.05; for PRYREDPCKQCKKKYVKGDSSLCR [V20S]: 3.11; for PRYREDPCKQCKKKYVKGDTSLCR [V20T]: 2.52.
The same measure for PRYREDPCKQCKKKYVKGDRSLCR [V20R]: 2.49; for PRYREDPCKQCKKKYVKGDGSLCR [V20G]: 2.18; for PRYREDPCKQCKKKYVKGDISLCR [V20I]: 2.64.
As to PRYREDPCKQCKKKYVKGDDSLCR [V20D], the protein stability index amounted to 3.29.
